From article PMC4956541

Substrate: O=S(=O)(O)O
Experiment: cells, lysate or membranes
Type: cell-based, Homo sapiens
Conditions: ND96(Cl-) bath, pH 7.4, extracellular sulfate, labelled compound

B1: human SLC26A1 (Homo sapiens) (protein)
chain: MDESPEPLQQGRGPVPVRRQRPAPRGLREMLKARLWCSCSCSVLCVRALVQDLLPATRWLRQYRPREYLAGDVMSGLVIGIILVPQAIAYSLLAGLQPIYSLYTSFFANLIYFLMGTSRHVSVGIFSLLCLMVGQVVDRELQLAGFDPSQDGLQPGANSSTLNGSAAMLDCGRDCYAIRVATALTLMTGLYQVLMGVLRLGFVSAYLSQPLLDGFAMGASVTILTSQLKHLLGVRIPRHQGPGMVVLTWLSLLRGAGQANVCDVVTSTVCLAVLLAAKELSDRYRHRLRVPLPTELLVIVVATLVSHFGQLHKRFGSSVAGDIPTGFMPPQVPEPRLMQRVALDAVALALVAAAFSISLAEMFARSHGYSVRANQELLAVGCCNVLPAFLHCFATSAALAKSLVKTATGCRTQLSSVVSATVVLLVLLALAPLFHDLQRSVLACVIVVSLRGALRKVWDLPRLWRMSPADALVWAGTAATCMLVSTEAGLLAGVILSLLSLAGRTQRPRTALLARIGDTAFYEDATEFEGLVPEPGVRVFRFGGPLYYANKDFFLQSLYSLTGLDAGCMAARRKEGGSETGVGEGGPAQGEDLGPVSTRAALVPAAAGFHTVVIDCAPLLFLDAAGVSTLQDLRRDYGALGISLLLACCSPPVRDILSRGGFLGEGPGDTAEEEQLFLSVHDAVQTARARHRELEATDAHL
Question: B1 was tested. Which K0.5 did it give?
Answer: The K0.5 was 0.26 ± 0.04 mM.
